From patent US20250263466A1 (VIR BIOTECHNOLOGY, published 2025)
Changes are numbered by the printed parent chain.

T1: MERS-CoV S protein (London1/2012) expressed on ExpiCHO cells (MERS-CoV, UniProt K9N5Q8 18-1353)
T1 sequence: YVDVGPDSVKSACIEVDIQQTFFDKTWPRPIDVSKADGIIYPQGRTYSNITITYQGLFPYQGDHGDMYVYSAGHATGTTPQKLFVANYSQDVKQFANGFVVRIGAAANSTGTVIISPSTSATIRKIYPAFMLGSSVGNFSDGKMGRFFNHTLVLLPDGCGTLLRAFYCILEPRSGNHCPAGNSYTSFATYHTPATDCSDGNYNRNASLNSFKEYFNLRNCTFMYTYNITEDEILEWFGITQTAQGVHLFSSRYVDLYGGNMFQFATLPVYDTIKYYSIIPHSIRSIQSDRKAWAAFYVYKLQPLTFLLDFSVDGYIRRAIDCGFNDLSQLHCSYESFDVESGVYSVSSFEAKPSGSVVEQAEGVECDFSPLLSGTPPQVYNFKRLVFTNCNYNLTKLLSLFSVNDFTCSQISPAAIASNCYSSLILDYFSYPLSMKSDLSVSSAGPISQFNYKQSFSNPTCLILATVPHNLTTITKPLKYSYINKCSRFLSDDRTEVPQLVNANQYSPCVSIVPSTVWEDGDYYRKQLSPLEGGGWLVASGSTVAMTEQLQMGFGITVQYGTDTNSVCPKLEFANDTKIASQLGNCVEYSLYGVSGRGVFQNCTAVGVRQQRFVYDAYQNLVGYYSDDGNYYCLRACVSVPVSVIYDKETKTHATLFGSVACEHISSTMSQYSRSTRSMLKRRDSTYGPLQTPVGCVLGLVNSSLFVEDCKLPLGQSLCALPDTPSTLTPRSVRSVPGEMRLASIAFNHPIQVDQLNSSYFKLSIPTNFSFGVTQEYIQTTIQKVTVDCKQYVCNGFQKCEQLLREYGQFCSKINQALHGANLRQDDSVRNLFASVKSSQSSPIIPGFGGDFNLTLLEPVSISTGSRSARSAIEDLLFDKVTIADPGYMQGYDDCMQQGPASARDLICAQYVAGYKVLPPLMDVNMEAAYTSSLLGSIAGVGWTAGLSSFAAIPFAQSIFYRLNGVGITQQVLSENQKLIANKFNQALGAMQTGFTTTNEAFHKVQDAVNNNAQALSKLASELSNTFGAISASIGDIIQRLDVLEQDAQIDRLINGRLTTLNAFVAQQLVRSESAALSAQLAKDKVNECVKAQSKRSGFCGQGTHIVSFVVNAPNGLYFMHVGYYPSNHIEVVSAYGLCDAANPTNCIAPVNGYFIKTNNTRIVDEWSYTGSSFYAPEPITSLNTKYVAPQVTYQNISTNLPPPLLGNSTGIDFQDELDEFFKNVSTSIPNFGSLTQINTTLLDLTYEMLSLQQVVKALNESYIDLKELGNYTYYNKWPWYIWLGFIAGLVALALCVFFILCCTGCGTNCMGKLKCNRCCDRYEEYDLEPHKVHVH

B1: nCoV-19 mAb (antibody, V domains shown)
VH: QVKLVESGGGVVQPGRSLRLSCAASGFTFSSNAMHWVRQTPGKGLEWVALISYDERNKYYAESVKGRFTISRDNSKNTLYLQMNSLRHEDTAVYYCARDLQMRVVVVSNFDYWGQGTLVTVSS
VL: DVVMTQSPLSLPVTLGQPASISCRSSQSLVYSDGNTYLNWFQQRPGQSPRRLIYEVSNWDSGVPDRFSGSGSGTDFTLKISRVEAEDVGVYYCMQATHWPPTFGQGTKLEIK
B2: nCoV-1 mAb (antibody, V domains shown)
VH: QAQLVESGGALVQPGRSLRLSCAASGFTFRNYAMHWVRQAPATGLQWLAVITSDGRNKFYADSVKGRFTISREDSKNTLYLQMDSLRGEDTAVYYCVTQRDNSRDYFPHYFHDMDVWGQGTTVAVSS
VL: B1 VL with M4L, N35D, E55Q, W59R, A96G, T97S, L109V
B3: nCoV-10 mAb (antibody, V domains shown)
VH: QVQLVESGGGVVQPGRSLRLSCAASGFTFSNYGMHWVRQAPGKGLEWLAVISSDGRIKFYADSVKGRFTMSRDSSKNTLYLQMNSLRAEDTAVYYCAKDRFQFARSWYGDYFDYWGQGTQVTVSS
VL: AVAMTQSPLSLPVTLGQPASISCRSNQSLVYSDGNIYLNWFQQRPGQSPMRLIYRVSNRDSGVPDRFSGSGSGTDFTLKISRVEAEDVGIYYCMQGTHWPPTFGGGTKVEIK
B4: nCoV-20 mAb (antibody, V domains shown)
VH: QVTLRESGPALVKPTQTLTLTCTFSGFSLTTTEMCVGWIRQPPGKALEWLALIDWDDDKYYSTSLRTRLTISKDTSKNQVVLTMTNMDPVDTATYYCARMFGRKRLAPTGFDPWGQGTLVTVSS
VL: DIVMTQSPLSLPVTPGEPASISCRSSQSLLHSNGKNYLDWYLQKPGQSPQLLICLGSYRASGVPDRFSGSGSGTDFTLKISRVEAEDVGVYYCMQALQTPWTFGQGTKVEIK

Key:
[1] = target: T1, MERS-CoV S protein (London1/2012) …; assay: flow cytometry on ExpiCHO cells transfected with MERS-CoV S
[2] = target: SARS-CoV S protein (Urbani strain) expressed on ExpiCHO cells (SARS-CoV, UniProt P59594 14-1255); assay: flow cytometry on ExpiCHO cells transfected with SARS-CoV S
[3] = target: SARS-CoV Spike S1 Subunit Protein (strain WH20) (SARS-CoV, UniProt P59594 14-667); assay: Octet (BLI): inhibition of SARS-CoV S1 binding to immobilized hACE2

Binder	binding result [1]	binding result [2]	IC50 [3] [µg/mL]
B1	no binding (tested: 10 µg/ml)	binds	–
B2	no binding (tested: 10 µg/ml)	–	1.13
B3	no binding (tested: 10 µg/ml)	–	2.69
B4	no binding (tested: 10 µg/ml)	binds	–
